Reference: the RNAGym collection of RNA variant scans (doi:10.1073/pnas.2313332121)
Variants at the floor of the assay were thinned out.

B1: TPR 5TU (parent)
chain: GGAUCUUCUCGAUCUAACAAAAAAGACAAAUCUGCCACAAAGCUUGAGAGCAUCUUCGGAUGCAGAGGCGGCAGCCUUCGGUGGCGCGAUAGCGCCAACGUUCUCAACUAUGACACGCAAAACGCGUGCUCCGUUGAAUGGAGUUUAUCAUG

Variants of: B1
Assay: polymerase ribozyme fitness, log enrichment relative to wild type (log ratio); higher = more active; in vitro selection for triplet polymerase activity
How it was run: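 To select mutant libraries of each subunit of a heterodimeric triplet polymerase ribozyme, built by PCR and transcribed, each was annealed with a biotinylated primer, partner subunit and triplets, then incubated frozen at −7 °C. Extended constructs were gel-excised, captured on streptavidin beads and amplified by RT-PCR, in one round carried out in triplicate. Illumina sequencing of input and output libraries kept genotypes with ≥10 input reads and ≥1 read per output. Fitness is the base-2 logarithm of genotype enrichment relative to wild-type enrichment, from inverse-variance-weighted replicate averages.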

Row | Variant | polymerase ribozyme fitness (log ratio)
1 | GGAUCUUCUCGAUCUAACAAAAAAGACAAAUCUGCCACAAAGCUUGAGAGCAUCUUCGGAUGCAGAGGCGGCAGCCUUCGGUGGCGCGAUAGCGUUAACGUUCUCAACUAUGACACGUAAAACGAGUGGUCCGUUGAAUGGAGUUUAUCAUG [C95U C96U C118U C125A C129G] | ≤ -4.2
2 | GGAUCUUCUCGAUCUAACAAAAAAGACAAAUCUGCCACAAAGCUUGAGAGCAUCUUCGGAUGCAGAGGCGGCAGCCUUCGGUGGCGCGAUAGCCCCAACGUUCUGAACUAUGACAAGCAAAACGCGUGCUCCGUUGAAUGGAGUUUAUCAUG [G94C C105G C116A] | -2.89
3 | GGAUCUUCUCGAUCUAACAAAAAAGACAAAUCUGCCACAAAGCUUGAGAGCAUCUUCGGAUGCAGAGGCGGCAGCCUUCGGUGGCGCGAUAGCCCUAACGUUCUCAACUAUGACACGCAAAACGCGUGCUCCGUUAAAUAGAGUUUAUCAUG [G94C C96U G136A G140A] | ≤ -4.2
4 | GGAUCUUCUCGAUCUAACAAAAAAGACAAAUCUGCCACAAAGCUUGAGAGCAUCUUCGGAUGCAGAGGCGGCAGCCUUCGGUGGCGCGAUAGCUCCAACGUUCUCAACUAUGACACGCAAAACGCGUGCUCCGUUGAAUGGAGUUUAUCAUG [G94U] | 1.12
5 | GGAUCUUCUCGAUCUAACAAAAAAGACAAAUCUGCCACAAAGCUUGAGAGCAUCUUCGGAUGCAGAGGCGGCAGCCUUCGGUGGCGCGAUAGCUCCAACGUUCUCAACUAUGACACGCAAAACGCGUGCUCCGUUGAAUUGAGUUUAUCAUG [G94U G140U] | -3.84
6 | GGAUCUUCUCGAUCUAACAAAAAAGACAAAUCUGCCACAAAGCUUGAGAGCAUCUUCGGAUGCAGAGGCGGCAGCCUUCGGUGGCGCGAUAGCCCCAACGUUCUCAACUAUGACACGCAAAACGCGUGCUCCGUUGAAUGGAGUUUAUCAAG [G94C U151A] | -3.85
7 | GGAUCUUCUCGAUCUAACAAAAAAGACAAAUCUGCCACAAAGCUUGAGAGCAUCUUCGGAUGCAGAGGCGGCAGCCUUCGGUGGCGCGAUAGCUCCAACGUUCUCAACUAUGACACGCAAAACGCGUGCUCCGUUGAAUGCAGGUUAUCAUG [G94U G141C U144G] | -1.83
8 | GGAUCUUCUCGAUCUAACAAAAAAGACAAAUCUGCCACAAAGCUUGAGAGCAUCUUCGGAUGCAGAGGCGGCAGCCUUCGGUGGCGCGAUAGCGUCAAAGUUCUCAACUAUGACACGCAAAACGCGUGCUCCGUUGAAUGGAGUUUAUCAUG [C95U C99A] | -0.15
9 | GGAUCUUCUCGAUCUAACAAAAAAGACAAAUCUGCCACAAAGCUUGAGAGCAUCUUCGGAUGCAGAGGCGGCAGCCUUCGGUGGCGCGAUAGCGUCAAUGUUCUCAACUAUGACACGCAAAACGCGUGCUCCGUUGAAUGGAGUUUAUCAUG [C95U C99U] | -1.09
10 | GGAUCUUCUCGAUCUAACAAAAAAGACAAAUCUGCCACAAAGCUUGAGAGCAUCUUCGGAUGCAGAGGCGGCAGCCUUCGGUGGCGCGAUAGCUCCAACGUUCUCAACUAUGACACGCAAAACGCGUGCUCCGUUGAAUGGAGUUUAUCAAG [G94U U151A] | ≤ -4.2
11 | GGAUCUUCUCGAUCUAACAAAAAAGACAAAUCUGCCACAAAGCUUGAGAGCAUCUUCGGAUGCAGAGGCGGCAGCCUUCGGUGGCGCGAUAGCGUCUAUGUUCUCAACUAUGACACGCAAAACGCGUGCUCCUUUGAAUGGAGUUUAUCGUG [C95U A97U C99U G133U A150G] | ≤ -4.2
12 | GGAUCUUCUCGAUCUAACAAAAAAGACAAAUCUGCCACAAAGCUUGAGAGCAUCUUCGGAUGCAGAGGCGGCAGCCUUCGGUGGCGCGAUAGCCCCAACGUUCUCAACUAUGACACGCAAAACUCGUGCUCCGUUGAAUGGAUUUUAUCAUG [G94C G124U G143U] | -3.6
13 | GGAUCUUCUCGAUCUAACAAAAAAGACAAAUCUGCCACAAAGCUUGAGAGCAUCUUCGGAUGCAGAGGCGGCAGCCUUCGGUGGCGCGAUAGCCCCAACUUUCUCAACUAUGACACGCAAAACGCGUGCUCCGUUGAAUGGAGUUUAUCAUG [G94C G100U] | -3.69
14 | GGAUCUUCUCGAUCUAACAAAAAAGACAAAUCUGCCACAAAGCUUGAGAGCAUCUUCGGAUGCAGAGGCGGCAGCCUUCGGUGGCGCGAUAGCCCCAACGUUCUCAACUAUGACACGCAAAACGCGCGCUCCGUUGAAUGGAGUUUAUCAUG [G94C U127C] | -2.45
15 | GGAUCUUCUCGAUCUAACAAAAAAGACAAAUCUGCCACAAAGCUUGAGAGCAUCUUCGGAUGCAGAGGCGGCAGCCUUCGGUGGCGCGAUAGCGUCAACGUUCUCAACUAUGACACGCUAAACGCGUGCUCCGUUGAAUGGAGUUUAUCAUG [C95U A119U] | -0.544
16 | GGAUCUUCUCGAUCUAACAAAAAAGACAAAUCUGCCACAAAGCUUGAGAGCAUCUUCGGAUGCAGAGGCGGCAGCCUUCGGUGGCGCGAUAGCGUCAACGUUCUCAACUAUGACACGCGAAACGCGUGCUCCGUUGAAUGGAGUUUAUCAUG [C95U A119G] | 0.353
17 | GGAUCUUCUCGAUCUAACAAAAAAGACAAAUCUGCCACAAAGCUUGAGAGCAUCUUCGGAUGCAGAGGCGGCAGCCUUCGGUGGCGCGAUAGCUCCAACUUUCUCAACUAUGACACGCAAAACGCGUGCUCCGUUGAAUGGAGUUUAUCAUG [G94U G100U] | -3.85
18 | GGAUCUUCUCGAUCUAACAAAAAAGACAAAUCUGCCACAAAGCUUGAGAGCAUCUUCGGAUGCAGAGGCGGCAGCCUUCGGUGGCGCGAUAGCUCCAACGUUCUCAAUUAUGACACGCAAAACGCGUGCUCCGUUGAAUGGAGUUUAUCAUG [G94U C108U] | -3.54
19 | GGAUCUUCUCGAUCUAACAAAAAAGACAAAUCUGCCACAAAGCUUGAGAGCAUCUUCGGAUGCAGAGGCGGCAGCCUUCGGUGGCGCGAUAGCUCCAACGUUCUCAACUAUGACACGCAAAAGGCGUGCUCCGUUGAAUGAAGUUCAUCAUG [G94U C123G G141A U146C] | -2.83

Row | Variant | polymerase ribozyme fitness (log ratio)
20 | GGAUCUUCUCGAUCUAACAAAAAAGACAAAUCUGCCACAAAGCUUGAGAGCAUCUUCGGAUGCAGAGGCGGCAGCCUUCGGUGGCGCGAUAGCCCCAACGUUCUCAACUAUGACUCGCAAAACGCGUGCUCCGUUGAAUGGAGUUUAUCAUG [G94C A115U] | -2.98
21 | GGAUCUUCUCGAUCUAACAAAAAAGACAAAUCUGCCACAAAGCUUGAGAGCAUCUUCGGAUGCAGAGGCGGCAGCCUUCGGUGGCGCGAUAGCGGCAGCGUUCUCAACUAUGACACGCAAAACGCGUGCUCCGUUGAAUGGAGUUUAUCAUG [C95G A98G] | -1.57
22 | GGAUCUUCUCGAUCUAACAAAAAAGACAAAUCUGCCACAAAGCUUGAGAGCAUCUUCGGAUGCAGAGGCGGCAGCCUUCGGUGGCGCGAUAGCCCCAACGUUCUCAACUAUGACACGCAAACCGCGUGCUCCGUUGAAUGGAGUUUAUCAUG [G94C A122C] | -0.988
23 | GGAUCUUCUCGAUCUAACAAAAAAGACAAAUCUGCCACAAAGCUUGAGAGCAUCUUCGGAUGCAGAGGCGGCAGCCUUCGGUGGCGCGAUAGCUCCAACGUUCUCAACUAUGACACGCAAAACGUGUGCUCCGUUGAAUGGAUUUUAUCAUG [G94U C125U G143U] | -4.16
24 | GGAUCUUCUCGAUCUAACAAAAAAGACAAAUCUGCCACAAAGCUUGAGAGCAUCUUCGGAUGCAGAGGCGGCAGCCUUCGGUGGCGCGAUAGCUCCAACGUUCUCAACUAUGACACGCAAAACGCGUGCUCCGUUGAAUGGAGUUUACCAUG [G94U U148C] | -2.92
25 | GGAUCUUCUCGAUCUAACAAAAAAGACAAAUCUGCCACAAAGCUUGAGAGCAUCUUCGGAUGCAGAGGCGGCAGCCUUCGGUGGCGCGAUAGCGUCAAAGUUCUCAACUAUGACACUCAAAACGCGUGCUCCGUUGAAUGGAGUUUAACAUG [C95U C99A G117U U148A] | ≤ -4.2
26 | GGAUCUUCUCGAUCUAACAAAAAAGACAAAUCUGCCACAAAGCUUGAGAGCAUCUUCGGAUGCAGAGGCGGCAGCCUUCGGUGGCGCGAUAGCCCCAACGUUCUCAACUAUGACACGCAAAACGCGUGCUCCGUUGAAUGGAGUUUAUCUUG [G94C A150U] | 1.09
27 | GGAUCUUCUCGAUCUAACAAAAAAGACAAAUCUGCCACAAAGCUUGAGAGCAUCUUCGGAUGCAGAGGCGGCAGCCUUCGGUGGCGCGAUAGCUCCAACGUUCUCAACUAUGACACGCAAAACGCGUGCUCCGUUGAAUGGAGUUUGUCAUG [G94U A147G] | -1.51
28 | GGAUCUUCUCGAUCUAACAAAAAAGACAAAUCUGCCACAAAGCUUGAGAGCAUCUUCGGAUGCAGAGGCGGCAGCCUUCGGUGGCGCGAUAGCUCCAACGUUCUCAACUAUGACAGGCAAAACGCGUGCUCCGUUGAAUGGAGUUUAUCAUG [G94U C116G] | -0.502
29 | GGAUCUUCUCGAUCUAACAAAAAAGACAAAUCUGCCACAAAGCUUGAGAGCAUCUUCGGAUGCAGAGGCGGCAGCCUUCGGUGGCGCGAUAGCUACAACGUUCUCAACUAUGACACGCAAAACGCGUGCUCCGUUGAAUGGAGUUUAUCAUA [G94U C95A G152A] | -3.85
30 | GGAUCUUCUCGAUCUAACAAAAAAGACAAAUCUGCCACAAAGCUUGAGAGCAUCUUCGGAUGCAGAGGCGGCAGCCUUCGGUGGCGCGAUAGCCCCAACGUUCUCAACUAUGACACGCAAAACGCGUGCUCCGUAGAAUGAAGUUUAUCAUG [G94C U135A G141A] | -2.22
31 | GGAUCUUCUCGAUCUAACAAAAAAGACAAAUCUGCCACAAAGCUUGAGAGCAUCUUCGGAUGCAGAGGCGGCAGCCUUCGGUGGCGCGAUAGCUCCAACGUCCUCAACUAUGACACGCAAAACGCGUGCUCCGUUGAAUGGAGUUUAUCAUG [G94U U102C] | -2.06
32 | GGAUCUUCUCGAUCUAACAAAAAAGACAAAUCUGCCACAAAGCUUGAGAGCAUCUUCGGAUGCAGAGGCGGCAGCCUUCGGUGGCGCGAUAGCUCCAUGGUUCUCAACUAUGACACGCAAAACGCGUGCUCCGUUGAAUGGAGUUUGUCAUG [G94U A98U C99G A147G] | -3.16
33 | GGAUCUUCUCGAUCUAACAAAAAAGACAAAUCUGCCACAAAGCUUGAGAGCAUCUUCGGAUGCAGAGGCGGCAGCCUUCGGUGGCGCGAUAGCCCCAACGUUCUCAACUAUGACACGCAAAACGCGUGCUCCGUUGCAUGGAGUUUAUUAUG [G94C A137C C149U] | -3.76
34 | GGAUCUUCUCGAUCUAACAAAAAAGACAAAUCUGCCACAAAGCUUGAGAGCAUCUUCGGAUGCAGAGGCGGCAGCCUUCGGUGGCGCGAUAGCCCCAACGUUCUCGACUAUGACACGCAAAACGCGUGCUCCGUUGAAUGGAGUUUAUCAUG [G94C A106G] | -1.31
35 | GGAUCUUCUCGAUCUAACAAAAAAGACAAAUCUGCCACAAAGCUUGAGAGCAUCUUCGGAUGCAGAGGCGGCAGCCUUCGGUGGCGCGAUAGCCCCAACGUUCUCAACUAUGACACGCAAAACGCGUGCUCCAUUGAAUGGAGUUUAUCAUG [G94C G133A] | -4.02
36 | GGAUCUUCUCGAUCUAACAAAAAAGACAAAUCUGCCACAAAGCUUGAGAGCAUCUUCGGAUGCAGAGGCGGCAGCCUUCGGUGGCGCGAUAGCCCCAACCUUCUCAACUAUGACACGCAAAACGCGUGCUUCCUUGAAUGGAGUUUAUGAUG [G94C G100C C131U G133C C149G] | ≤ -4.2
37 | GGAUCUUCUCGAUCUAACAAAAAAGACAAAUCUGCCACAAAGCUUGAGAGCAUCUUCGGAUGCAGAGGCGGCAGCCUUCGGUGGCGCGAUAGCGUAAACGUUCUCAACUAUGACACGCAAAACGCGUGCUCCGUUGAAUGGAGUUUAUCAUG [C95U C96A] | -1.02
38 | GGAUCUUCUCGAUCUAACAAAAAAGACAAAUCUGCCACAAAGCUUGAGAGCAUCUUCGGAUGCAGAGGCGGCAGCCUUCGGUGGCGCGAUAGCCCCAACGUUCUCAACUAUGACACGCAAAACGCGUUCUCCGUUGAAUGGAGUUUAUCAUG [G94C G128U] | -3.18
